Data: article doi:10.1101/2022.06.01.494398

Biological target: CERTL (long isoform of the ceramide transport protein CERT; GPBP, COL4A3BP) (UniProt Q9Y5P4)
Test: SEC-MALS of self-association
Conditions: reference: hyperphosphorylated wild-type StrepII-CERTL (CERTLP); sites S132

Chain of CERTL (long isoform of the ceramide transport protein CERT; GPBP, COL4A3BP) (Q9Y5P4 whole entry S132A, canonical isoform): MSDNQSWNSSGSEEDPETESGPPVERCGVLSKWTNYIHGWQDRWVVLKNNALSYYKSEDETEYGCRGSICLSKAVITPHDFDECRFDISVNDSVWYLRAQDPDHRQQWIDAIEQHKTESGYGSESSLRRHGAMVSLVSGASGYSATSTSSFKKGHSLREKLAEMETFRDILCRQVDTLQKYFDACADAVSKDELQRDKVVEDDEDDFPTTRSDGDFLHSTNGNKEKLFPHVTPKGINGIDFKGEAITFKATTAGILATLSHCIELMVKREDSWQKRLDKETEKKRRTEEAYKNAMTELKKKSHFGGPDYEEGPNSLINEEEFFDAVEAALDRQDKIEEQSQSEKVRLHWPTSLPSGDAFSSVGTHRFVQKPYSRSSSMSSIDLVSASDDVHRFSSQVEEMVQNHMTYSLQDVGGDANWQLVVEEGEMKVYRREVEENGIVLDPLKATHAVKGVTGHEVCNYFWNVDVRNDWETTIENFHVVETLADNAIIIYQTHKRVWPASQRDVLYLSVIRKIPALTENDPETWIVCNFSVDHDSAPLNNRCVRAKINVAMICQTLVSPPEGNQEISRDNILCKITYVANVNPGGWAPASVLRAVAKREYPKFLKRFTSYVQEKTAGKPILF

## CERTL (long isoform of the ceramide transport protein CERT; GPBP, COL4A3BP) (from UniProt Q9Y5P4) StrepII-CERTL S132A (hypophosphorylated)
  other: observed mass (expected trimer 215.7): same; reference 184.3
